# Measurements: article PMC3606643
# T1: HNF4α ΔABΔF (DBD-hinge-LBD) (human, UniProt P41235-2 55-377)
# T1 sequence: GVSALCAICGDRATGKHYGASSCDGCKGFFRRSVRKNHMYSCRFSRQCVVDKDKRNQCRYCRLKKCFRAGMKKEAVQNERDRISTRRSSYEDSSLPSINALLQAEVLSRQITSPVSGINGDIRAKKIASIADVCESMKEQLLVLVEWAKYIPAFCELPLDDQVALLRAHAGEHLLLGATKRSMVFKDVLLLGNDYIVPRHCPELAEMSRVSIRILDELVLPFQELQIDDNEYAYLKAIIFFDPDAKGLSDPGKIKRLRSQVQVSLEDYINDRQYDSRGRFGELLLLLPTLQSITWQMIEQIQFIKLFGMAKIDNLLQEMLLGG
# T2: HNF4α DBD (DBD-hinge) (human, UniProt P41235-2 55-135)
# T2 sequence: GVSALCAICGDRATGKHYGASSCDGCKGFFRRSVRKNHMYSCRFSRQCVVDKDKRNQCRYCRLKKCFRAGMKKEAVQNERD
# What was measured:
# [1] = target: T1, HNF4α ΔABΔF (DBD-hinge-LBD); assay: fluorescence anisotropy
# HNF4α DBD (DBD-hinge) = target: T2, HNF4α DBD (DBD-hinge); assay: fluorescence anisotropy
binder,measurement,setting,value
DR1 (5'-fluorescein top strand) (dsDNA) DNA 1: GGAACTAGGTCAAAGGTCAG DNA 2: CCTGACCTTTGACCTAGTTC,Kd,[1],0.082 µM
same,Kd,HNF4α DBD (DBD-hinge),~6 µM
